Source: patent US20250051437A1

How the values were obtained:
BT474 Cells = assay: KinExA using BT474 Cells
[1] = molecular target: mouse CDH17-mGFP fusion protein overexpressed on HEK293T cells (mouse) (UniProt Q9R100); assay: flow cytometry (BD C6), secondary antibody alone on HEK293T Mouse CDH17 mGFP cells; on HEK293T Parental: 507.66
[2] = molecular target: human cadherin-17 (CDH17), endogenously expressed on human cancer cell lines (LS513, SNU-C1, PaTu8988s, HPAF-II) (human) (UniProt Q12864); assay: flow cytometry (iQue) on PATU8988S cells; secondary antibody only, background control
[3] = molecular target: human cadherin-17 (CDH17), endogenously expressed on human cancer cell lines (LS513, SNU-C1, PaTu8988s, HPAF-II) (human) (UniProt Q12864); assay: flow cytometry (iQue) on LS513 cells; secondary antibody only, background control
[4] = molecular target: rat CDH17 fused to moxGFP, overexpressed on HEK293T cells (rat) (UniProt P55281); assay: flow cytometry (BD C6), secondary antibody alone on HEK293T Rat CDH17 moxGFP cells; on HEK293T Parental: 507.66
Chain of rat CDH17 fused to moxGFP, overexpressed on HEK293T cells (rat) (P55281 22-827): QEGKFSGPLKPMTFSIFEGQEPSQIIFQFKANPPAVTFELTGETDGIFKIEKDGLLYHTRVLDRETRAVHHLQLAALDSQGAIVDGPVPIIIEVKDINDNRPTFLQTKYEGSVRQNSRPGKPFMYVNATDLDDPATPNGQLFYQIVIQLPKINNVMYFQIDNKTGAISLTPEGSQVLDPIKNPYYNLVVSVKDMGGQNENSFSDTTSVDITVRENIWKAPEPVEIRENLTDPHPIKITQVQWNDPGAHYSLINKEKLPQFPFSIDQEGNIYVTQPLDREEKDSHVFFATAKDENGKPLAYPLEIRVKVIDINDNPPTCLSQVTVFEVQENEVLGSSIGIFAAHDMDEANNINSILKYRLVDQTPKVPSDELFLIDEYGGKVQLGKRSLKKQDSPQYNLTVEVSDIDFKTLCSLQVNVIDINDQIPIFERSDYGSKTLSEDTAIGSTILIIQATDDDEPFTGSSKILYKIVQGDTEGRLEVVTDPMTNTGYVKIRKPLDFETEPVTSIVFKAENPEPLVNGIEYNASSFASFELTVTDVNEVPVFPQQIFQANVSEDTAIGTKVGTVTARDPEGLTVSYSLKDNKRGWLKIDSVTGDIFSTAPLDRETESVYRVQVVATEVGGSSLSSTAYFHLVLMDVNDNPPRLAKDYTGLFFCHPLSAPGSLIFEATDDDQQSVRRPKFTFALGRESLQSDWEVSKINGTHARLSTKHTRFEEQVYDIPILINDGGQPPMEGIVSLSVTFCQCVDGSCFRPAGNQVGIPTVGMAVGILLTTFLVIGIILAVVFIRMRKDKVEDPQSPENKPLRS

[5] = molecular target: human CDH17-mGFP fusion protein overexpressed on HEK293T cells (clone G11) (human) (UniProt Q12864); assay: flow cytometry (BD C6), secondary antibody alone on HEK293T CDH17 mGFP G11 cells; on HEK293T Parental: 507.66
[6] = molecular target: monkey (crab-eating macaque) CDH17 fused to moxGFP, overexpressed on HEK293T cells (monkey (crab-eating macaque)); assay: flow cytometry (BD C6), secondary antibody alone on HEK293T Macaque CDH17 moxGFP cells; on HEK293T Parental: 507.66
[7] = molecular target: human cadherin-17 (CDH17), endogenously expressed on human cancer cell lines (LS513, SNU-C1, PaTu8988s, HPAF-II) (human) (UniProt Q12864); assay: flow cytometry (iQue) on SNUC1 cells; secondary antibody only, background control
[8] = molecular target: human CDH17-mGFP fusion protein overexpressed on HEK293T cells (clone G11) (human) (UniProt Q12864); assay: flow cytometry (iQue) on HEK293T CDH17 mGFP clone G11 (human); secondary antibody only, background control
[9] = molecular target: human cadherin-17 (CDH17), endogenously expressed on human cancer cell lines (LS513, SNU-C1, PaTu8988s, HPAF-II) (human) (UniProt Q12864); assay: indirect flow cytometry (iQue) on LS513 cells (CDH17+); secondary antibody only, background control

Chain of mouse CDH17-mGFP fusion protein overexpressed on HEK293T cells (mouse) (Q9R100 26-827): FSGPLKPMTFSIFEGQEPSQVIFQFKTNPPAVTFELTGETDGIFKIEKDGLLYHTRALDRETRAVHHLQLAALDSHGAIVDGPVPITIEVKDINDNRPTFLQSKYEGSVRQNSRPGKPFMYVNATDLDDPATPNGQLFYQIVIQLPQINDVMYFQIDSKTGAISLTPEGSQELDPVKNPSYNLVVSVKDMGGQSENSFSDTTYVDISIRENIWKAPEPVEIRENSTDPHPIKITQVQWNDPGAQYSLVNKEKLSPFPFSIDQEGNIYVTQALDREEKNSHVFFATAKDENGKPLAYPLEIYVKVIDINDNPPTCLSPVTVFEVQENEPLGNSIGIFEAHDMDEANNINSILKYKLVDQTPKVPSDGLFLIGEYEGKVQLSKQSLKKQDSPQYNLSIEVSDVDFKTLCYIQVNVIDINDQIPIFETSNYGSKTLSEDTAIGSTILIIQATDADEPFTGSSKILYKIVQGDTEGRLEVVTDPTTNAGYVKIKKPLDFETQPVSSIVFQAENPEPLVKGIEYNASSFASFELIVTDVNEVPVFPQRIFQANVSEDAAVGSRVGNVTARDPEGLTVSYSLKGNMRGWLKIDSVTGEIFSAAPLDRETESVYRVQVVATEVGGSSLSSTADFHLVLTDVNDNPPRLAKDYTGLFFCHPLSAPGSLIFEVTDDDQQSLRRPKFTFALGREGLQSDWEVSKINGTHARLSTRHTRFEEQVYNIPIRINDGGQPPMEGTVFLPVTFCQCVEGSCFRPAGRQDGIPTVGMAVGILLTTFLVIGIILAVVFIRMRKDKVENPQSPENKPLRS

## Herceptin (antibody)
BT474 Cells
  Kd: 769 pM

## fluorochrome-labelled anti-human IgG secondary antibody alone (2nd Ab only control)
[1]
  FL4-H: 740
[2]
  Antibody Binding Activity by Flow iQue: 5930
[3]
  Antibody Binding Activity by Flow iQue: 4900
[4]
  FL4-H: 633
[5]
  FL4-H: 727
[6]
  FL4-H: 720
[7]
  Antibody Binding Activity by Flow iQue: 3900
[8]
  Antibody Binding Activity by Flow iQue: 1960

## AF647-anti-his tag 2° Ab (secondary antibody alone, control)
[9]
  FL4-H: 33200
